Source: patent US20240182536A1 (MURAL ONCOLOGY, published 2024)
Numbering of substitutions follows the chain as printed. In names and notes the source's numbering stands. Like-named read-outs stand apart in the source and are kept apart here.

T1: human IL-18 binding protein (IL-18BP) (human, UniProt O95998 31-194)
T1 construct: also called hu IL-18BP; hIL18BP
T1 sequence (looked up): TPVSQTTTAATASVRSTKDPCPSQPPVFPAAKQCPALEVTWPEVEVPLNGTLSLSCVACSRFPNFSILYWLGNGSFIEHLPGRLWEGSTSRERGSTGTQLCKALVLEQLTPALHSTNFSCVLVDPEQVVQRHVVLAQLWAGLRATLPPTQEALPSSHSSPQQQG

T2: IL-18 receptors on HEK-Blue IL-18 reporter cells (InvivoGen) (UniProt Q13478 19-541; O95256 20-599)
T2 sequence (looked up) 1: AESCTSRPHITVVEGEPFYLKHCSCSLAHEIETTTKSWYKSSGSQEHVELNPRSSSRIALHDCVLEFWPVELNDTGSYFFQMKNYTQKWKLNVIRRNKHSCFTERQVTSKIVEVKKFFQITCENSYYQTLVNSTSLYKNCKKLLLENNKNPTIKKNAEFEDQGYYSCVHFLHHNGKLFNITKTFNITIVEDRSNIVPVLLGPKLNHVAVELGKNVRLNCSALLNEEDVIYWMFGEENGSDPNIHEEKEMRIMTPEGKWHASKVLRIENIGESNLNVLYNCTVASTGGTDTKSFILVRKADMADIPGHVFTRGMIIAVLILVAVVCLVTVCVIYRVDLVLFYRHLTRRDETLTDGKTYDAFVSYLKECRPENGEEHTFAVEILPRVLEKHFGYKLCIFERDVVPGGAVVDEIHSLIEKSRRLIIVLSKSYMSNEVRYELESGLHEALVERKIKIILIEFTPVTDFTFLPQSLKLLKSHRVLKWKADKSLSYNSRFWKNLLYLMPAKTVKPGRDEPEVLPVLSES
T2 sequence (looked up) 2: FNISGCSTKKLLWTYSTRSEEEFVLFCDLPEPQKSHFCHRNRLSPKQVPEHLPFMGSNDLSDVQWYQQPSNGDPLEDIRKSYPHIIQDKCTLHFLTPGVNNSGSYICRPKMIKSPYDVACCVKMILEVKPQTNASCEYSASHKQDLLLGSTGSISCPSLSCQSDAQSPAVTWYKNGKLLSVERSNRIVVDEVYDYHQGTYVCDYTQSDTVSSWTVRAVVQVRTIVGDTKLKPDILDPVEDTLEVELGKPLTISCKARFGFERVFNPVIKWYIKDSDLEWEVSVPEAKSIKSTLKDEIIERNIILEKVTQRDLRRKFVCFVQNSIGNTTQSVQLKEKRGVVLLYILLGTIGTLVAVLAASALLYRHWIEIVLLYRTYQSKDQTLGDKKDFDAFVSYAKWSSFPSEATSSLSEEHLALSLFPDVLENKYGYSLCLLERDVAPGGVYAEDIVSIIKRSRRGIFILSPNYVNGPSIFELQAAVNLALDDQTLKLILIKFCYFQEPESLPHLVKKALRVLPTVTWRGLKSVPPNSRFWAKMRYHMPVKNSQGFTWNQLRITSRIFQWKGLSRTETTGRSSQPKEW

T3: interleukin 18 binding protein (IL-18BP) (UniProt O95998 31-194)
T3 sequence (looked up): T1 sequence (looked up)

T4: human IL-18R alpha/beta pair (IL-18Rab) (human, UniProt Q13478 19-329; O95256 20-356)
T4 construct: also called hu IL-18Rab
T4 sequence (looked up) 1: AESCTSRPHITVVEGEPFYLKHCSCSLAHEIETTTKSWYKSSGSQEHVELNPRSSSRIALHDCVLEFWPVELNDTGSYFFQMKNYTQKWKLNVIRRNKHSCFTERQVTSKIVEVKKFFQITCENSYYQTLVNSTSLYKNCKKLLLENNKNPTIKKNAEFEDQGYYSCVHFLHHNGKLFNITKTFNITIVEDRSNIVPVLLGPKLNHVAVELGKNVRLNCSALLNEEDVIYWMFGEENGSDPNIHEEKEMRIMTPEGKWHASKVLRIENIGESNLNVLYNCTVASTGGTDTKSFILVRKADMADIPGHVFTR
T4 sequence (looked up) 2: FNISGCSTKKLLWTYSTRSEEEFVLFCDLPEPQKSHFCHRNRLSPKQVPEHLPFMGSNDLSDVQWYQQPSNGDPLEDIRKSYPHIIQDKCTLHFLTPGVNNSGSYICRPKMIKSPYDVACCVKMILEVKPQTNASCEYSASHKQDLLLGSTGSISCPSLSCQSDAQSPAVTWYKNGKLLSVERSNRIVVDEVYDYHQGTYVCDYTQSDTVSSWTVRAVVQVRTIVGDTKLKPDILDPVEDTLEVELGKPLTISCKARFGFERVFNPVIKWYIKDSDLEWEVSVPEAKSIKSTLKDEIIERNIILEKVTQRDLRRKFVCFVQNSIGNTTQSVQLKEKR

T5: human IL-18 receptor alpha (IL-18Rα) (human, UniProt Q13478 19-329, limits assumed)
T5 construct: also called hu IL-18Ra; IL-18R alpha
T5 sequence (looked up): T4 sequence (looked up) 1

T6: IL-18 receptor alpha (UniProt Q13478 19-329, limits assumed)
T6 construct: also called IL-18 Rα; IL-18Rα
T6 sequence (looked up): T4 sequence (looked up) 1

T7: human IL-18 binding protein (human, UniProt O95998 31-194)
T7 sequence (looked up): T1 sequence (looked up)

T8: IL-18 receptors on HEK-Blue IL-18 reporter cells (UniProt Q13478 19-541; O95256 20-599, limits assumed)
T8 sequence (looked up) 1: T2 sequence (looked up) 1
T8 sequence (looked up) 2: T2 sequence (looked up) 2

B1: IL-18 variant G3A, K53S (ligand)
chain: YFAKLESKLSVIRNLNDQVLFIDQGNRPLFEDMTDSDMRDNAPRTIFIISMYSDSQPRGMAVTISVKSEKISTLSSENKIISFKEMNPPDNIKDTKSDIIFFQRSVPGHDNKMQFESSSYEGYFLASEKERDLFKLILKKEDELGDRSIMFTVQNED
B2: IL-18 variant G3E, E6A, K53Q, D54W, S55V, T63M, N91M, R104N (ligand)
chain: B1 chain with A3E, E6A, S53Q, D54W, S55V, T63M, N91M, R104N
B3: IL-18 variant G3N, E6Y, K53Q, D54W, S55R, N91T, R104P (ligand)
chain: B1 chain with A3N, E6Y, S53Q, D54W, S55R, N91T, R104P
B4: IL-18 variant G3V, E6K, K53A (ligand)
chain: B1 chain with A3V, E6K, S53A
notes: also called G3V, K53A, E6K
B5: IL-18 variant G3S, K53S (ligand)
chain: B1 chain with A3S
B6: human IL-18 variant G3V/K53A/M60K (ligand)
chain: B1 chain with A3V, S53A, M60K

Tests used:
[1] = target: T1, human IL-18 binding protein (IL-18BP); assay: Octet BLI
Description: (§1) Octet 96red instrument was used to determine affinities of IL18 proteins to BP or receptors. 5-10 ug/ml analyte proteins were used for loading on Sartorius tips (AHC or SA). […] 120-180 s loading, 200 s association and 800 s dissociation were used for kinetics. 3-7 data points were used to calculate affinities.
Select G3/K53-substitution containing IL-18 variants and select G3/K53/N91-substitution containing TL-18 variants were tested for activity in the HEK-blue activity assay and for binding affinity to IL-18BP. As shown in the data of Table 15 and Table 16 below, each variant had similar or better activity than WT IL-18, and retained substantial activity in the presence of IL-18BP.

[2] = target: T1, human IL-18 binding protein (IL-18BP); assay: cell-based or functional assay
[3] = target: T2, IL-18 receptors on HEK-Blue IL-18 …; assay: cell-based or functional assay
[4] = target: T3, interleukin 18 binding protein (IL-18BP); assay: cell-based or functional assay
[5] = target: T1, human IL-18 binding protein (IL-18BP); assay: Octet BLI; remark: listed apart in the source
Description: as §1

[6] = target: T4, human IL-18R alpha/beta pair (IL-18Rab); assay: Octet BLI
Description: as §1

[7] = target: T5, human IL-18 receptor alpha (IL-18Rα); assay: Octet BLI
Description: as §1

[8] = target: T1, human IL-18 binding protein (IL-18BP); assay: cell-based or functional assay; remark: listed apart in the source
[9] = target: T2, IL-18 receptors on HEK-Blue IL-18 …; assay: cell-based or functional assay; remark: listed apart in the source
[10] = target: T1, human IL-18 binding protein (IL-18BP); assay: cell-based or functional assay; remark: listed apart in the source
[11] = target: T2, IL-18 receptors on HEK-Blue IL-18 …; assay: cell-based or functional assay; remark: listed apart in the source
IL-18 receptor alpha = target: T6, IL-18 receptor alpha; assay: Octet BLI
Description: as §1
Additional IL-18 variants were generated and tested based on the results above with G3 variants, E6 variants, K53 variants, and M60 variants. The new variants were first tested for binding to IL-18Rα and IL-18BP by octet, as described above.

[12] = target: T7, human IL-18 binding protein; assay: cell-based or functional assay
[13] = target: T8, IL-18 receptors on HEK-Blue IL-18 …; assay: cell-based or functional assay
[14] = target: T7, human IL-18 binding protein; assay: cell-based or functional assay; remark: listed apart in the source
[15] = target: T8, IL-18 receptors on HEK-Blue IL-18 …; assay: cell-based or functional assay; remark: listed apart in the source

Binder | Kd [1] [nM] | koff [1] [s⁻¹] | kon [1] [M⁻¹ s⁻¹] | HEK-Blue Ec50 (pM), +IL-18BP (50 nM) [2] [pM] | HEK-Blue Ec50 (pM), -IL-18BP [3] [pM] | Ratio (-BP/+BP), DF-1000005 [4] | Ratio (-BP/+BP), DF-5000006 [4] | Ratio (-BP/+BP), DF-25000007 [4] | further results
B1 | 16.2 | 0.00398 | 245000 | 4.45 | 1.69 | – | – | – | –
B2 | – | – | – | – | – | 0.97 | 1.03 | 0.99 | –
B3 | – | – | – | – | – | 1.02 | 0.93 | 1.03 | –
B4 | – | – | – | – | – | – | – | – | Kd [5]: 19 nM; Kd [6]: 0.27 nM; Kd [7]: 52 nM; HEK-Blue Activity Assay Ec50 (pM), +300 nM hu IL-18BP [8]: 1.71 pM; HEK-Blue Activity Assay Ec50 (pM), -hu IL-18BP [9]: 0.02 pM; Fold Change (BP/NO BP), 50 nM BP [10]: 8.67 fold; Fold Change (BP/NO BP), 300 nM BP [10]: 74.8 fold; HEK-Blue EC50 pM, +50 nM BP [10]: 0.33 pM; HEK-blue EC50 (pM) + 300 nM BP [10]: 1.71 pM; HEK-Blue EC50 pM, NO BP (50 nM BP run) [11]: 0.04 pM; HEK-Blue EC50 pM, NO BP (300 nM BP run) [11]: 0.02 pM
B5 | 12 | 0.00338 | 283000 | 4.43 | 2.06 | – | – | – | –
B6 | – | – | – | – | – | – | – | – | Kd (IL-18 receptor alpha): 488 nM; HEK-blue EC50 (pM) + 300 nM BP [12]: 0.063 pM; HEK-blue EC50 (pM) - BP [13]: 0.041 pM; HEK-blue EC50 (pM) + 1000 nM BP [14]: 0.075 pM; HEK-blue EC50 (pM) - BP [15]: 0.086 pM
